Source: patent publication US6136558A, “Heregulin variants” (Genentech, Inc., priority 1998, dated 2000)

Tests used:
[1] = biological target: ErbB-3 receptor-Ig fusion (human) (UniProt P21860); experiment: phage ELISA, soluble ErbB-3-Ig as competitor
[2] = biological target: ErbB-4 receptor-Ig fusion (human) (UniProt Q15303); experiment: phage ELISA, soluble ErbB-4-Ig as competitor
[3] = biological target: ErbB-3 receptor-Ig fusion (human) (UniProt P21860); experiment: phage ELISA, ratio to wild-type HRG-β1 177-244 on phage
[4] = biological target: ErbB-4 receptor-Ig fusion (human) (UniProt Q15303); experiment: phage ELISA, ratio to wild-type HRG-β1 177-244 on phage; clone selected on ErbB-4-Ig with ErbB-3-Ig counter-selection
[5] = biological target: ErbB-4 receptor-Ig fusion (human) (UniProt Q15303); experiment: phage ELISA, ratio to wild-type HRG-β1 177-244 on phage; clone selected on ErbB-4-Ig

Row | Substance | EC50 [1] [nM] | EC50 [2] [nM] | EC50 Mut/Wt [3] | EC50 Mut/Wt [4] | EC50 Mut/Wt [5]
1 | HRG-β1 177-244 F229A on phage (ligand) | 6 | > 1000 | – | – | –
2 | HRG-β1 177-244 H178L on phage (ligand) | – | – | 1.4 | 1.2 | –
3 | HRG-β1 177-244 L179A on phage (ligand) | 1000 | 56 | – | – | –
4 | HRG-β1 177-244 K211A on phage (ligand) | > 1000 | 59 | – | – | –
5 | HRG-β1 177-244 H178W with Met in place of 228-231, on phage (ligand) | – | – | 1.2 | – | 1.7
6 | HRG-β1 177-244 R207P on phage (ligand) | – | – | 6.1 | 1.3 | –
7 | HRG-β1 177-244 S177A on phage (ligand) | 67 | 83 | – | – | –
8 | HRG-β1 177-244 G218A on phage (ligand) | > 1000 | > 1000 | – | – | –
9 | HRG-β1 177-244 F189A on phage (ligand) | 892 | 106 | – | – | –
10 | HRG-β1 177-244 Y224A on phage (ligand) | 865 | 51 | – | – | –
11 | HRG-β1 177-244 E195A on phage (ligand) | > 1000 | 24 | – | – | –
12 | HRG-β1 177-244 H178A on phage (ligand) | > 1000 | 32 | – | – | –
13 | HRG-β1 177-244 G193A on phage (ligand) | > 1000 | 23 | – | – | –
14 | HRG-β1 177-244 T217A on phage (ligand) | > 1000 | 14.2 | – | – | –
15 | HRG-β1 177-244 L179V on phage (ligand) | – | – | 1.5 | – | 1.6
16 | HRG-β1 177-244 H178E L179V on phage (ligand) | – | – | 0.8 | 1.7 | –
17 | HRG-β1 177-244 H178T L179M on phage (ligand) | – | – | 1.4 | 1.6 | –
18 | HRG-β1 177-244 H178D L179V on phage (ligand) | – | – | 2.2 | 2 | –
19 | HRG-β1 177-244 H178E on phage (ligand) | – | – | 9.5 | – | 1.7
20 | HRG-β1 177-244 R207A on phage (ligand) | > 1000 | 30 | – | – | –
